Measured values as given in US20260125665.

Assays:
[1] = test system: Microlyse variant 1.1
[2] = test system: Microlyse variant 1.0

For Thrombin, the “cleavage by thrombin (reducing SDS-PAGE, Western blot with anti-human UPA antibody)” value [1] was “For both ML 1.0 and ML 1.1 a distinct band at around 35 Kd is observed, indicating cleavage of Microlyse by thrombin” and the “cleavage by thrombin (reducing SDS-PAGE, Western blot with anti-human UPA antibody)” value [2] was “For both ML 1.0 and ML 1.1 a distinct band at around 35 Kd is observed, indicating cleavage of Microlyse by thrombin”.
